# Measured values reported in publication PMC5707411 (Nature Communications, 2017).
# What was measured:
# [1] = molecular target: full-length RSV F (TM, residues 1–574) from strain A2 with the DS-Cav1 prefusion-stabilizing mutations (Human respiratory syncytial virus A, …, UniProt P03420, stabilised); assay: cell-based or functional assay
# [2] = molecular target: T1, StrepTagII and 6xHis-tagged RSV pre-F (DS-Cav1) in the 9320 RSV F background (Human respiratory syncytial virus B, …, UniProt Q6V2E7, stabilised); assay: SPR; 6xHis-tagged pre-F (DS-Cav1) captured on an NTA sensor chip to ~150 RU, Biacore X100; Fab injected in 3-fold dilutions (5C4:pre-F 9320, 0.460–3000 nM); double-reference subtracted, 1:1 binding model; settings: both partners purified
# T1 construct: respiratory syncytial virus fusion glycoprotein, subtype B strain 9320, stabilised in the prefusion conformation by the DS-Cav1 mutations; also called pre-F 9320; pre-F derived from subtype B strain 9320; source: Freestyle 293-F, transfected, expressed with kifunensine (5 µM); purified from supernatant (Strep-Tactin)
# [3] = molecular target: T2, RSV F (+) FdTHS based on strain A2 (wild-type A2 RSV F ectodomain fused to a C-terminal trimerization motif) (Human respiratory syncytial virus A, …, fully glycosylated (N-linked) | fully glycosylated (N-linked)); assay: crystal structure; 5C4 Fab co-expressed with RSV F (+) FdTHS in Expi293, complex purified (Ni-NTA, Strep-Tactin, thrombin, Superose 6); crystal from 0.2 M ammonium acetate, 0.1 M Bis-Tris pH 6.5, 25% PEG 3350; 3.4 Å; settings: both partners purified
# T2 construct: F2 subunit (N-terminal fragment of F0 made by furin-like proteases) of the respiratory syncytial virus fusion glycoprotein, strain A2; ectodomain part of the F1 subunit (C-terminal fragment of F0 made by furin-like proteases) of the respiratory syncytial virus fusion glycoprotein, strain A2; Trimer of F2-F1 heterodimers; pep27 is removed by furin-like proteases; also called pre-F; F glycoprotein; …
# [4] = molecular target: T3, full-length RSV F (TM, residues 1–574) from strain A2 with the DS-Cav1 prefusion-stabilizing mutations (Human respiratory syncytial virus A, …, UniProt P03420, stabilised); assay: flow cytometry on cells; Expi293 cells 48 h after transfection with full-length DS-Cav1 RSV F variants, stained with IgG 1 h at 4 °C (D25 Alexa Fluor 488-conjugated; 5C4 detected with FITC goat anti-mouse), fixed; fractional binding relative to motavizumab; settings: one partner purified
# T3 construct: signal peptide in the construct; In cells F0 is cut by furin-like proteases into F2 and F1 (pep27 removed) and forms trimers; also called RSV A2 pre-F; wild-type A2; source: Expi293, transiently transfected (pVRC8400), on the cell surface
binder,measurement,setting,value
"5C4 IgG (antibody, V domains shown) VH: EVQLQQSGAELVKPGASVKLSCTASGFNIKDTFFHWVKQRPEQGLEWIGRIDPADGHTKYDPKFQGKATITADTSSNTAFLQLSSLTSVDTAVYYCATTITAVVPTPYNAMDYWGQGTSVTVSS VL: DIVLTQSPASLAVSLGQRTTISCRASESVDSFDNSFIHWYQQKPGQPPKLLIFLASSLESGVPARFSGSGSRTDFTLTIDPVEADDAATYYCQQSNEDPFTFGSGTKLEIK",EC50 of 5C4 neutralisation of mKate-RSV A2 wild-type virus on HEp-2 cells (viral F without DS-Cav1; antibody format not given),[1],4 ng/mL
"5C4 Fab (Fab, V domains shown, 5C4 Fab heavy chain (antibody elicited in mice); 5C4 Fab light chain (murine kappa, Vk3-10); source: Expi293, transiently co-transfected heavy and light chain plasmids; purified from supernatant (CaptureSelect LC-kappa (murine)); for the complex co-expressed with RSV F) VH: EVQLQQSGAELVKPGASVKLSCTASGFNIKDTFFHWVKQRPEQGLEWIGRIDPADGHTKYDPKFQGKATITADTSSNTAFLQLSSLTSVDTAVYYCATTITAVVPTPYNAMDYWGQGTSVTVSS VL: DIVLTQSPASLAVSLGQRTTISCRASESVDSFDNSFIHWYQQKPGQPPKLLIFLASSLESGVPARFSGSGSRTDFTLTIDPVEADDAATYYCQQSNEDPFTFGSGTKLEIK",binding result,[2],binds
same,stoichiometry N,[3],3
"D25 IgG (antibody, V domains shown, D25 heavy chain (human antibody); the variable domain and CH1 are in the D25 Fab of the cited entry PDB 4JHW; rest of the IgG heavy chain not described; D25 light chain (human antibody); in the D25 Fab of the cited entry PDB 4JHW; also called mAb D25; Alexa Fluor 488-conjugated D25 IgG; copies: 2 + 2) VH: QVQLVQSGAEVKKPGSSVMVSCQASGGPLRNYIINWLRQAPGQGPEWMGGIIPVLGTVHYAPKFQGRVTITADESTDTAYIHLISLRSEDTAMYYCATETALVVSTTYLPHYFDNWGQGTLVTVSS VL: DIQMTQSPSSLSAAVGDRVTITCQASQDIVNYLNWYQQKPGKAPKLLIYVASNLETGVPSRFSGSGSGTDFSLTISSLQPEDVATYYCQQYDNLPLTFGGGTKVEIK",binding result,[4],binds
